Assay results: the DeepSol protein solubility set

Assay: soluble on expression in E. coli; label from the status in PepcDB or PDB records

| Sequence | soluble on expression in E. coli |
| --- | --- |
| MSLSLALQYFKALSDETRLRLIHVLNRHELSVNELVSILEMGQSRVSRHLKILTGAGLLTSRRDGLWVFYSAAAEGDGRAFLDAVTPFVTTDMVLQADLDMAQKIIEERALKTRQFFNAIAEDWDELNREVLGGFDLAGAVAEAMPQCETAVDLGCGTGSVIERMLQRSQQVIGVDGSPRMLELARRRFVEGAERVSLRIGELDHLPLRDGEADFASINMVLHHLSDPGVALGEIRRVLRLGGQLMVTDFDRHDNERMRSDYGDRWLGFEGVQLEGLLREAGFTVRECRRQGVAKGLALHLMLAEKTQEGHHHHHH | soluble |
| MLTRDFLQKADCRTSFGCIEETLLLTPQQRADSLDRMLALRPNSCPVWVFGYGSLMWNPVFDAEETCLATLTGWQRAFCLRLTIGRGTVTQPGRMLALQPGGQTTGLAFRLPKTSLREDLELLWKREMLTGCYRPLWCELHRKNGAPLTALVFVSEPEHPLNENDTCIQSVAPLIARASGPLGTNAQYLFALEQELKNHGTEDESVSELAQRVRTLQQSCPAPAGGGQLEHHHHHH | not soluble |
| MSLLVIPAIDLQSGRCVRLKQGRFDQVTQFSVFPIERALHFAKLGAKRLHVVDLDGARSGKMQQLELICSMQKTGIPIQAGGGIRSIEQALECSNAGISQLVIGSLAITNPDLTIQIIEKIKPENIVLALDVRVDTKVPLLAINGWQNNSTSSLWEVVSYYENYGIKNILCTDIACDGMMNGPNFDLYQQAVEYFPQIAWQASGGVRHMQDITTLNSLGISAVILGLMLYQDHMNLEELLEGHHHHHH | soluble |
| MDQFISAFLKSASENNFQQLAKEFLPQYSALISKAGGMLSPETLTGIHKALQEGNLSDVMSQIQKAISAAENAILEVAVIGQSGTGKSSFINALRGLGHEADESADVGTVETTMCKTPYQHPKYPKVIFWDLPGTGTPNFHTDTYLDQVGFANYDFFIIISSSRFSLNDALLAQKIKDAGKKFYFVRTKVDSDLYNEQKAKPIAFKKEKVLQQIRDYCVTNLIKTGVTEPRIFLISNLDLGTFDFPELEETLLKELPGHKRHMFALLLPNISDASIELKKHFLREKIWLEALKSAAVSFIPFMTFFKGFDLPEQEQCLKDYRSYFGLDDQSIKEIAEKLGAPLADIKGELKCLDFWSLVKDNSIIAQATSAAEAFCAVKGGPESSAFQALKVYYRRTQFLNIVVDDAKHLLRKIETVNVA | soluble |
| YIKVPVLRLKPSEIHINLKLLKKTADYSSVSALQQTMLYLGRLLVQSGVNTLGVDAVAAFNAASIIDSYVLAPGSSLASSVTTFSAQNRGGGKYDRIPRG | not soluble |
| MGSDKIHHHHHHMFSIKRVIYYQELIRVGSFTKAAKALNISQAFLSQEIARLEIETERKLINRTTRQFSLTPFGQIFADKIQGMIKEHYELEQFVSSYEESTDGALLVGVIPIFNRLAHYNMFNLFQKAYPNIDISFIDGVSTDLLERVRNGEIHLSFSTPFDEYLNDPLFHHTICQIDDIVAVMATSHPLADNKTLSLPQLVKEKLIVPQKGTGEHAAVSESFTRQGINPSYFRECSNMDIIMDLVMNLSGVVFLCSSVAKSLTAYDVAVIPLEEQLKRTFAISYLKRSVNIPMVRLFLDFLQDYSESVR | not soluble |
| MAHHHHHHMAHGSFDAVRKEMETQEKIIATLQRDNESLLREKKEILSRCKQLEHDFEHLEAKHSLLLSAQQDFAVRSNMHTANDSAKIVNLQAQVEELQTNLETEKRRCALLLQERNDLAQSKSDTPSLVGSAEITNVAVVREQQGRSEDIVAKLRESQRIHSIQKSTIDALHSEVTRLESERKVSHSRESNLLREVDSLRTQVRDLESALQQKKGGIRELMSSCQAGSANAQRLKKQETRIRLLEKALLEKDEFTKRAMEELRAEAKKVCERYQSTVAELRQRLEVPKDDPELQKRISTLERENLDLRRALGGASVSLAVESAQPVQKLATEPKHHTDVTDKADKPGGQALKAPGSHELEITHLHSVIERLRAEICEHKQRNITLQSKLDSIHAEWDARLAEMKTNFALQIQTLRSAHNEELSRLEASHQTQLLEISKCSKADRGDSLASRLSRIVEEKGYDASLIAIGERLCFLEKRYCQKEEEKTHELLEMKRVAELEMKIQKEKTDLLLEQKNTQIKRFQVQLDELLAALSILQATS | not soluble |
| MKSKFMIHQIFSNYCSKNTRLHTLLYKTFVRPILEYGTEVSSPLKKQDIKAIESVQNSFTRKLYSRQKGKYIRTDDPDYKSAIQRNELFNLSTLEARRKAIDKVFLSKMLVNKVDIDTDQFFKIDKNSKTRTKTKFIWGKCKTKLRRHFFTNRVLSSIKISAMNLILAPHVLCMFNTFTHYSSP | not soluble |
| MSLMNKSQQVQTITLAAAQQMAAAVEKKATEINVAVVFSVVDRGGNTLLIQRMDEAFVSSCDISLNKAWSACSLKQGTHEITSAVQPGQSLYGLQLTNQQRIIIFGGGLPVIFNEQVIGAVGVSGGTVEQDQLLAQCALDCFSALEGGSHHHHHH | soluble |
| MRVLTKKTEEEIRRDFFGPVQEAACKPYLLDVDPRKSWCELSELRLSTLICEFKPIGINKHFHLIGIIERMGKVFDNENAQVEIFLSEENRVAFRNQQRDLLMGGRPERTSYPPKYLCRPSLEMIEDKLKKWFGLRFCEENESYPSEFNSVTDYELPEYIMAEVRELSDKRAERERNTDNGIVESEKKSTIPRRLTEEDENYDIQT | not soluble |
| MYLTLQEWNARQRRPRSLETVRRWVRESRIFPPPVKDGREYLFHESAVKVDLNRPVTGSLLKRIRNGKKAKS | soluble |
| MSLTHVIWDMGETLNTVPNTRYDHHPLDTYPEVVLRKNAKETLEKVKQLGFKQAILSNTATSDTEVIKRVLTNFGIIDYFDFIYASNSELQPGKMEKPDKTIFDFTLNALQIDKTEAVMVGNTFESDIIGANRAGIHAIWLQNPEVCLQDERLPLVAPPFVIPVWDLADVPEALLLLKKISEGHHHHHH | soluble |
| MSLTGKPIVLGLTISTTAAAGVADHADHMNGSLLAQEEINANGGILGRPLELRPVDVDLLSAESCQASIRKLVDLKVHAISSPFLFVPIPAMDASANYKCPYVNGNTQRAATDMVAKHPEKYNHIFQMDPSEVFYGETFPVFLESLADSGNWKPKNNKVHIVQEQIAYCQTISRACQEALKKSRFELAKVTDIQYPVQDWGSVIRDIKKTGAGTVMMDHWVAAEYAAFCKQFRANPLKGTLIYLQYGPSQPEFLELTGKAAEGFVWSTMLGVYADKKGQAFRDKYQKRFPGKTMGLCYTGGGYDIAYMMAQAWNAVGNPDDFKAVNDYIRKTAFRGVCGWSYMNNPRQEARHFPLGTDSIESGMSQLYFQIQDGKNKIIYPPQLKEGHHHHHH | soluble |
| SKVTSLTACLVDQSLRLDCRHENTSSSPIQYEFSLTRETKKHVLFGTVGVPEHTYRSRTNFTSKYNMKVLYLSAFTSKDEGTYTCALHHSGHSPPISSQNVTVLRDKLVKC | soluble |
| MEGDTVHWQTHTVFNQPIPLNNSNLYLSDGALCEAVTREGAGWDSDFLASIGQQLGTAESLELGRLANVNPPELLRYDAQGRRLDDVRFHPAWHLLMQALCTNRVHNLAWEEDARSGAFVARAARFMLHAQVEAGSLCPITMTFAATPLLLQMLPAPFQDWTTPLLSDRYDSHLLPGGQKRGLLIGMGMTEKQGGSDVMSNTTRAERLEDGSYRLVGHKWFFSVPQSDAHLVLAQTAGGLSCFFVPRFLPDGQRNAIRLERLKDKLGNRSNASCEVEFQDAIGWLLGQEGEGIRLILKMGGMTRFDCALGSHAMMRRAFSLAIYHAHQRHVFGNPLIQQPLMRHVLSRMALQLEGQTALLFRLARAWDRRADAKEALWARLFTPAAKFVICKRGMPFVAEAMEVLGGIGYCEESELPRLYREMPVNSIWEGSGNIMCLDVLRVLNKQAGVYDLLSEAFVEVKGQDRYFDCAVRRLQQQLRKPAEELGREITHQLFLLGCGAQMLKYASPPMAQAWCQVMLDTRGGVRLSEQIQNDLLLRATGGVCV | not soluble |
| AGHMQQEAVAPEDSAVVKLATDSFNEYIQSHDLVLAEFFAPWCGHCKNMAPEYVKAAETLVEKNITLAQIDCTENQDLCMEHNIPGFPSLKIFKNSDVNNSIDYEGPRTAEAIVQFMIKQSQPAVAVVADLPAYLANETFVTPVIVQSGKIDADFNATFYSMANKHFNDYDFVSAENADDDFKLSIYLPSAMDEPVVYNGKKADIADADVFEKWLQVEALPYFGEIDGSVFAQYVESGLPLGYLFYNDEEELEEYKPLFTELAKKNRGLMNFVSIDARKFGRHAGNLNMKEQFPLFAIHDMTEDLKYGLPQLSEEAFDELSDKIVLESKAIESLVKDFLKGDASPIVKSQEIFENQDSSVFQLVGKNHDEIVNDPKKDVLVLYYAPWCGHCKRLAPTYQELADTYANATSDVLIAKLDHTENDVRGVVIEGYPTIVLYPGGKKSESVVYQGSRSLDSLFDFIKENGHFDVDGKALYEEAQEKAAEEADADAELADEEDAIHDEL | soluble |
| SAQQRALPQSKETLLQSYNKRLKDDIKSIMDNFTEIIKTAKIEDETQVSRATQGEQDNYEMHVRAANIVRAGESLMKLVSDLKQFLILNDFPSVNEAIDQRNQQLRTLQEECDRKLITLRDEISIDLYELEEEYYSSRYK | soluble |
| MGSDKIHHHHHHMKILIVGGSGGIGSAMVKDALARFQDAEVHATFCTDSTHTGCSHFSGVKWHRLDVTDEAGIKALSESFESLDWLINCVGMLHSGSKGPEKSLSQFDGEFFLHNMTLNTLPTLLLAKHFSARLKSSVSPRLAVLSARVGSISDNRLGGWYSYRASKAALNMLIKTLAVEWQRSLKGGVVLALHPGTTKTRLSEPFQANVPGDKLFLPERVAADLMDIIARAEVCDSGSFLAYDGATIPW | not soluble |
| MPVLHNRISNDELKAKMLAESEPRTTISFYKYFTIASPQQTRDALYQVFTALDVFGRVYLAHEGINAQISVPQSKLETFRQQLYTFDPALDGVRLNIALEDDGKSFWVLRMKVRDRIVADGIDDPTFDASNVGDYLKAADVNAMLDDPDAVFIDMRNHYEYEVGHFENALEIPADTFREQLPKAVEMLREHADKKIVMYCTGGIRCEKASAWMKHNGFNKVWHIEGGIIEYARRARAQGLPVRFIGKNFVFDERMGERISDEVIAHCHQCGASCDSHTNCKNDGCHLLFIQCPQCASKFNGCCSEQCCEELALPEEEQRRRRAGRENGNKIFNKSRGRLNSKLSIPDPAE | not soluble |
| MPEQAQTRRVFLFLQGPHGPFFHALGRMLRAAGAEVWRVGFNAGDRAFWFHPPSFIPYKGAHEDWPQAFADLLERKGVTDIVLYGDTRPIHASAVAAAKARGLGVHVFEEGYLRPYWVTYEREGSNGNSRLMDMTLEEMRAALALSDLETPLPPSHWGDMRQHIFYGALYHWFVMFTNQGYRRFKPHRDLPVTKEFQLYLQRLLLMPALAVERMLATARIRNGGFPYHLALLQLEHDSSFQQHSPFSTMTDFLEEIFDGFARGAPQHHHLVVKAHPLENGRVPLRREVRRLARQHGLEGRVHYVRGGKLAQLLNDARSAVTVNSTAGQQVLWRGIPLKVFGRAVYDKPEFVSTQTASEFFAAANRPDARAYKEYRRYLLETSQLPGGFYSRKGRRQLLRQVVDMMLSPDDPYDALKSGKAAPRQQLRLVN | not soluble |
| MSLYENKKVVAIGGGHGLGRMLAALKVFGSNATGIVTTTDNGGSTGRIRHCQGGIAWGDTRNCINQLITEPSISSMMFEYRFKGAGELNGHNLGNLMLTALDNLSVRPLDAINLIRNMLKVDVNILPMSEHPSDLAALAMDGKWVTGETSVDEMTQDLRRLDLAPEVPATKEAVTAIQDADCVILGPGSFLTSVMPPLLLPELGKAIARNQTAKVIFVENLSPEYGPAGRMSLEQKLEWCERACQGRKIDVVLGHHPHPELEQRWNFVTRDLASANRDWRHDRQKLRQAIEEQLMNLEHHHHHH | soluble |
